Source: the supplement of paper PMC12667976

B1: library; numbered along this chain (parent)
chain: MATDAALRRLLRLHRTEIAVAVDSAFPLLHALADHDVVPEDKFQETLHLKEKEGCPQAFHALLSWLLTQDSTAILDFWRVLFKDYNLERYGRLQPILDSFPKDVDLSQPRKGRKPPAVPKALVPPPRLPTKRKASEEARAAAPAALTPRGTASPGSQLKAKPPKKPESSAEQQRLPLGNGIQTMSASVQRAVAMSSGDVPGARGAVEGILIQQVFESGGSKKCIQVGGEFYTPSKFEDSGSGKNKARSSSGPKPLVRAKGAQGAAPGGGEARLGQQGSVPAPLALPSDPQLHQKNEDECAVCRDGGELICCDGCPRAFHLACLSPPLREIPSGTWRCSSCLQATVQEVQPRAEEPRPQEPPVETPLPPGLRSAGEEVRGPPGEPLAGMDTTLVYKHLPAPPSAAPLPGLDSSALHPLLCVGPEGQQNLAPGARCGVCGDGTDVLRCTHCAAAFHWRCHFPAGTSRPGTGLRCRSCSGDVTPAPVEGVLAPSPARLAPGPAKDDTASHEPALHRDDLESLLSEHTFDGILQWAIQSMARPAAPFPS

Variants of: B1
Assay: AIRE transcriptional activation functional score (insulin promoter-GFP; nonsense median 0, synonymous median 1) (normalised score); higher = higher AIRE activity (more reporter activation)
Details: with insulin promoter-GFP reporter in HEK293
Summary of the method: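 Using Bxb1 recombinase, codon-optimized NNN-codon libraries for three AIRE regions were inserted into Flp-In T-REx HEK293 landing-pad cells with an insulin core promoter-GFP reporter. After integrants (mCherry+, BFP−) were sorted at day 7 and expanded for 7 days, the top 10% GFP and unselected integrant populations underwent tile-sequencing. Functional scores are wild-type-subtracted enrichments of variants in select over non-select samples. A cutoff of 10 counts per million in non-select applied, and values were rescaled (nonsense median 0, synonymous median 1) and averaged over biological replicates.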

AIRE transcriptional activation functional score: each site, then its substitutions
G374: T 0.972; Y 0.519; H 0.816; I 1.18; A 1.33; V 1.07; C 1.55; W 1.65; F 2.03; K 0.524; S 1.24; L 1.29; P 1.1; D 0.16; R 1.31
R378: K 1.17; Q 0.825; P 0.932; T 0.986; C 0.601; G 0.98; S 0.975; E 0.928; D 0.631; V 0.869; H 0.92; M 0.0153; L 0.904; A 0.851; Y 0.657; I 0.795; N 1.28; F 1.1
P380: W 1.39; S 0.998; Q 1.16; F 0.369; Y 1.42; L 0.882; H 0.534; E 0.934; I 1.14; C 0.499; V 0.912; M 1.34; K 0.944; N 1.52; D 0.476; R 0.936; A 0.626; G 0.801; T 1.45
E383: Y 1.27; T 1.49; C 1.18; Q 0.74; S 1.01; P 0.887; L 1.22; D 0.97; R 1.05; M 0.564; I 0.922; H 0.859; V 1.13; F 1.58; A 1.32; W 0.951; K 0.473; G 1.09
P384: M 1.35; N 0.179; L 1.14; Q 1.01; T 1.17; G 1.62; K 0.962; H 1.05; V 0.849; R 1.19; I 0.998; S 0.379; A 0.99; W 1.61; E 1.39
G369: Y 0.617; R 0.772; L 1.46; S 0.939; T 0.912; V 0.854; Q 1.43; K 1.35; F 1.46; W 0.914; N 1.1; E 1.68; D -0.344; A 0.861; C 1.25; I 1.18
A373: E 1.28; P 1.13; T 1.63; R 0.736; L 0.776; K 1.02; H 1.23; F 0.264; D 1.02; S 0.969; I 0.836; G 0.987; V 0.766; W -0.241
R371: S 0.653; I 0.173; P 0.614; M -0.128; G 1.55; L 1.5; D 1; W 1.77; T 0.753; Y 1.39; V 1.27
S372: I 0.653; N 1.2; C 1.31; K 1.48; G 0.89; V 1.33; L 0.938; T 0.951; E 1.3; H 1.13; F 1.02; A 1.16; W 1.62; P 1.07; Y 1.25; D 1.06; R 1.16
P368: L 1.01; E 0.965; F 1.63; G 1.05; N 1.58; V 1.13; R 1.04; D 0.975; Q 0.776; T 0.983; A 1.2; I 1.29; H 1.18; S 1.27; K 1.38; C 1.55
P367: T 1.17; L 0.763; W 1.97; S 1.13; V 0.854; Y 1.39; K 1.04; M 0.302; N 0.956; R 1.06; Q 1.26
P381: T 0.929; A 0.912; E 1.26; L 1.13; H 1.03; C 0.894; M 1.06; D 0.696; Q 1.35; W 0.42; F 1.15; S 0.87; I 0.705; G 1.11; R 1.25; Y 1.39; V 1.15; K 1.04; N 1.07
E376: G 0.776; V 1.24; K 1.15; I 1.36; H 1.36; Q 1.62; P 1.25; D 0.34; F 0.443; A 0.899; W 1.23; R 1.12; N 1.32; L 1.17; T 0.984; Y 0.702; S 1.08
E375: G 0.999; R 1; V 1.47; K 1.35; D 1.04; S 0.907; H 1.6; C 0.539; F 1.55; Y 1.51; A 1.18; P 1.21; Q 1.05; N 1.89; L 1.47; T 0.785; I 1.08
A386: K 1.1; Q 0.654; N 0.757; D 0.793; P 0.921; Y 1.55; M 1.53; W 1.47; V 0.968; T 1.02; H 1.44; S 0.756; E 1.21; C 0.57; F 1.74; I 0.514; G 0.732; L 1.36; R 1.1
G387: F 1.52; C 0.799; L 1.35; P 0.291; I 1.59; K 0.344; R 1.1; A 1.19
G382: D 0.898; N 0.95; R 1.03; V 1.22; F 1.11; L 0.669; T 0.841; W 1.38; P 0.74; C 0.802; I 0.702; E 1.19; Q 1.24; H 1.29; K 0.449; S 0.979; A 0.906; Y 1.13
L370: D 0.434; W 0.504; V 1.03; H 0.944; I 1.25; C 1.12; Q 0.241; E -0.238; G 1.08; P 1.08; K 0.92; R 0.586; S 1.32; T 1.03; A 0.668; F 0.823
L385: F 0.899; Q 1.24; H 1.13; K 0.616; T 0.874; G 1; E 1.15; D -0.182; S 0.77; I 0.603; R 0.699; W 1.56; C 1.42; V 0.955; P 0.451; A 0.341; Y 1.34; N 0.689
V377: N 1.2; L 1.19; Q 0.854; K 0.952; F 1.15; P 1.28; A 0.734; C 1.32; D 0.248; G 1.16; S 0.916; W 1.82; E 1.81; T 1.37; I 1.15; R 1.09; M 0.944
G379: W 1.23; K 1.19; L 1.41; E 1; T 0.911; P 0.992; R 0.719; A 0.877; Y 1.47; N 1.23; S 1.37; C 0.863; V 0.691; D 1.24; I 1.26
